MglA GTPase activity, malachite green-based assay; 3 μM MglA-His6 mixed 1:2:2 with MglB and Strep-RomY (against ~18 with MglB alone) and MglA GTPase activity, regenerative coupled enzyme assay; 3 μM MglA-His6 mixed 1:2:2 with MglB and Strep-RomY (against ~12 with MglB alone) data for one substance are collected here from PMC9481161.

For this assay, the target named is His6-MglB (Myxococcus xanthus) (UniProt Q1DB03).
Sequence of UniProt Q1DB03 (Q1DB03 entry or part of it): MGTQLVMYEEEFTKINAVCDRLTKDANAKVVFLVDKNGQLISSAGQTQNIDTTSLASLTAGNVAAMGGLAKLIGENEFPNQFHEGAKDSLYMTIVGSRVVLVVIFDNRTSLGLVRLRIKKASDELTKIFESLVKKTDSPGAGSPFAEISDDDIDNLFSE

Strep-RomY (natural protein) showed a MglA GTPase activity, malachite green-based assay; 3 μM MglA-His6 mixed 1:2:2 with MglB and Strep-RomY (against ~18 with MglB alone) of 31 GTP/MglA/hr; a MglA GTPase activity, regenerative coupled enzyme assay; 3 μM MglA-His6 mixed 1:2:2 with MglB and Strep-RomY (against ~12 with MglB alone) of 25 GTP/MglA/hr.
